In publication PMC4103454, “FAN1 Activity on Asymmetric Repair Intermediates Is Mediated by an Atypical Monomeric Virus-type Replication-Repair Nuclease Domain” (Cell Reports, 2014):

T1: tryptic fragment 515-790 of hFAN1_360 (human, UniProt Q9Y2M0 515-790)
T1 construct: human FAN1, protected tryptic fragment identified by mass spectrometry as amino acids 515-790; The three fragments are said to correspond broadly to the SAP, TPR and VRR-Nuc homology regions; also called amino acids 515–790; source: limited tryptic proteolysis of purified hFAN1_360 (from E. coli)
T1 sequence (looked up): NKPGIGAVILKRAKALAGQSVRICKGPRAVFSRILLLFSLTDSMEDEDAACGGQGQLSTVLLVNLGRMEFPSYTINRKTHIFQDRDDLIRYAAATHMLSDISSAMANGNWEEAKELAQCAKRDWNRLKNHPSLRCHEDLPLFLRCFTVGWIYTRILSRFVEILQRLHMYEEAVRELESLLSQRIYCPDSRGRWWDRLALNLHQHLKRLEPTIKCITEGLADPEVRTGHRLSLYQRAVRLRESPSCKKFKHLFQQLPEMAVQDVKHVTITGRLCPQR

B1: tryptic fragment 360-507 of hFAN1_360 (domain or fragment, human, UniProt Q9Y2M0 360-507, looked up)
chain: GSSCNGPGQTTGHPYYLRSFLVVLKTVLENEDDMLLFDEQEKGIVTKFYQLSATGQKLYVRLFQRKLSWIKMTKLEYEEIALDLTPVIEELTNAGFLQTESELQELSEVLELLSAPELKSLAKTFHLVNPNGQKQQLVDAFLKLAKQR
notes: human FAN1, protected tryptic fragment identified by mass spectrometry as amino acids 360-507; The three fragments are said to correspond broadly to the SAP, TPR and VRR-Nuc homology regions; also called amino acids 360–507; source: limited tryptic proteolysis of purified hFAN1_360 (from E. coli)
B2: tryptic fragment 795-1,012 of hFAN1_360 (domain or fragment, human, UniProt Q9Y2M0 795-1012, looked up)
chain: SVFVMEAGEAADPTTVLCSVEELALAHYRRSGFDQGIHGEGSTFSTLYGLLLWDIIFMDGIPDVFRNACQAFPLDLCTDSFFTSRRPALEARLQLIHDAPEESLRAWVAATWHEQEGRVASLVSWDRFTSLQQAQDLVSCLGGPVLSGVCRHLAADFRHCRGGLPDLVVWNSQSRHFKLVEVKGPNDRLSHKQMIWLAELQKLGAEVEVCHVVAVGAK
notes: human FAN1, protected tryptic fragment identified by mass spectrometry as amino acids 795-1,012; The three fragments are said to correspond broadly to the SAP, TPR and VRR-Nuc homology regions; also called amino acids 795–1,012; source: limited tryptic proteolysis of purified hFAN1_360 (from E. coli)
B3: psNUC, VRR-Nuc single-domain protein of Psychrobacter (enzyme)
chain: RLKGLTEDEVQTVVMNWSKRQKFKGRPLFDYIHHSPNGGKRAAKIGSSGKRYSPEAAKFKRMGVKAGYPDLIIDIARGAYHGLRIEIKKDGNSYATPAQKERIEMLAKEGYCAVVAKGIDNVISVIQQYIKLGDFDGVSQLTADK
notes: psNUC, standalone VRR-Nuc domain protein of Psychrobacter, UniProt A5WF35; Synthetic gene (GeneART) in pGEX 6P-1; The structure was solved by SAD on a selenomethionine derivative; source: E. coli, purified (glutathione-Sepharose, 3C protease cleavage, Superdex gel filtration)

Tests used:
[1] = target: saNUC, VRR-Nuc single-domain protein of Salmonella enteritidis typing phage 3 (Salmonella enteritidis typing phage 3); assay: AUC; sedimentation velocity, 50,000 rpm, 277 K, 50 mM Tris/HCl pH 8.0, 300 mM NaCl, 0.50 mM TCEP, interference optics, SEDFIT c(s) and c(M)
[2] = target: stNUC, VRR-Nuc single-domain protein of Streptococcus equi bacteriophage P9 (Streptococcus equi bacteriophage P9); assay: as above
psNUC = assay: EMSA; details: stoichiometric binding at 1 nM DNA; 'indicative of a subnanomolar' KD; EMSA: 1 nM radiolabelled DNA, 20 C, 30 min, binding buffer in Supplemental Information (composition and pH not in material); 2.5% Ficoll-400, 8% native PAGE in …
stNUC = assay: EMSA; details: EMSA: 1 nM radiolabelled DNA, 20 C, 30 min, binding buffer in Supplemental Information (composition and pH not in material); 2.5% Ficoll-400, 8% native PAGE in …
[3] = target: B2; assay: SEC; S200 gel filtration of a preparative scale tryptic digest of hFAN1_360; SDS-PAGE of fractions across the peak; details: both partners purified
[4] = target: T1, tryptic fragment 515-790 of hFAN1_360; assay: as above; details: both partners purified
[5] = target: the molecule itself; assay: AUC; sedimentation velocity as above, psNUC at concentrations above 70 uM; dimer to tetramer
[6] = target: the molecule itself; assay: AUC; sedimentation velocity, 50,000 rpm, 277 K, 50 mM Tris/HCl pH 8.0, 300 mM NaCl, 0.50 mM TCEP, interference optics, SEDFIT c(s) and c(M)

Molecule: saNUC, VRR-Nuc single-domain protein of Salmonella enteritidis typing phage 3 (enzyme)
- stoichiometry N [1]: 2

Molecule: stNUC, VRR-Nuc single-domain protein of Streptococcus equi bacteriophage P9 (enzyme)
- stoichiometry N [2]: 2

Molecule: four-way DNA junction (HJ)
- Kd (psNUC): < 1 nM
- Kd (stNUC): 200 nM

Molecule: B1
- binding result [3]: binds
- binding result [4]: binds

Molecule: B2
- binding result [4]: binds

Molecule: B3
- stoichiometry N [5]: 4
- stoichiometry N [6]: 2
